According to the DeepSol protein solubility set:

assay: soluble on expression in E. coli; label from the status in PepcDB or PDB records

**Q.** Which “soluble on expression in E. coli” value does the source give for “MGSDKIHHHHHHMKFVVSSNALLKQLTAINGVITTNPVVPILENFLFEIGDGMLVVYASDLQTSMITEIAVEAKAKGSIAVPAKILLDTLKNLPEQPVTFTIDPETYSIEISSDNGRYKLSGENATDFPKVPGVKNGYSVDISTEILNRAISSTIFAASNDELKPAMTGVYVSLTESNATFVATDGHRLIRYRRTDIVSEMANTLIIPKKALNLLKASLPSENTNVKIEYNASNAFFSFNNIKMICRLIDERFPDYENAIPVDNPNVLTITRTDMMNSLKRISIYANKTTHQVRLKLAGSELQISAEDLDFSNEANERLACEFEGQDMEIGFNAKFLVEMLSNLDSPQISMHFSAPNRAGIITPADKDEHEDVLMLVMPVMLNSYA” here?
**A.** not soluble

**Q.** With “MGSDKIHHHHHHMKFYEDGNIPEIPNMYFIYGDGGTGKTSLLKQLKGHKFVFSFDMSSNVLIGDKDVDVVIFEHNDAPNIQAMVEECIIRAIQNAKYQVIVLDNVTALQNLVLENIDNAAKDNRQNYQKLQLWFRDLGTILKESGKTIYATAHQLDNGSSGISGEGRFQADMNEKTFNAFTSMFDLVGRIYLAAGERMIDLDPEKGNHAKNRLDDRKLIKANELIQSEKGEK” as the sequence, how does the “soluble on expression in E. coli” value read?
**A.** not soluble

**Q.** For “MGSDKIHHHHHHMKGFMNMFTNDQFKSLLIKTLERKSSSNYYEGGNEIVSKMKISEVTLDETDDFTYYKGYKKGWNTLCTYLKIRVPFDDLDFFESHKDLITQTASSIYDKQGDNVLVDTILVPLPENYEVINFSQLKISDVVSQAIEDAESFMSNGEYQRAFDRVHTAFHGYLIEILKKYEITVPRDENLSKLYSRIQQLIEKEIQPTELADIVKTTIRSSNGMISSLNEARNRHSLAHPNTNIIGKREAKLIIGISSTVTDYISGYLDK”, which “soluble on expression in E. coli” value is on record?
**A.** not soluble

**Q.** For “MGSDKIHHHHHHMKGGTEPVETSKMEKAAALLGGMIDLPTIPAVAIQVLSLLDEPEVDVDDVAELVLTDQVMAARVLKMVNSPLYRPATEITSLKGALVYLGLRHIREFILTCSIIQCSEGKDGVLGVKPFWEHSFGVGIVARLIAEKVGYHDTEKAYIGGIIHDIGEVFLSYYMRDEFQKIVDSISDKPHKLVEAEEEFLGTTHCEIGLCIARAWRFPDDYCEVIAHHHAPQEAKNAPRLTAIVNLADLFCNVRQLDYGGKAWVSFSLADEPAWGMLQGPGSRLSELDIERFCYELDDRVEEISELVGNIFKNG”, which “soluble on expression in E. coli” value is on record?
**A.** not soluble

**Q.** Which “soluble on expression in E. coli” value does the source give for “MGSDKIHHHHHHMKGGTSKFKTHTETLYKKKKWSSVSEKRPQKCPSQCLESKQPQVSVLGKRRRASQTPAQETLESEWPQKAKRKKRRREPQTPAQETLESEWPQKAKKKKRRGEPQTPTQESLESEQPPVSLLGKRRRESQTPAQENSESEQPRKAKRRRKKRKGSQQPTSSLLKTPETFLKAKKTTSAHKKKKNSVLEVDMETGIILVDKENMENLLETSRKDVDIVYVDMSKGQRSAKVRETGELPAAKPQEHGCRELLGDVRSRKKQKHLQKVAPWDVVQGSQPESISLPPSEPLSSEDLEGKSTEAAVFCKKKSKKNVFRSQELEPIPDSLDDSETISERLDSTHHGGAVGAGEECESTKESHSIKKKSKKKKHKSVALATSSDSASVTDSKAKNALVDSSEGSGAVREEDVDHRPAEAEAQACSTEKHREAMQRLEPTHEEESNSESASNSAARHISEDRRESDDSDVDLGSAVRQLREFIPDIQERAATTIRRMYRDDLGRFKEFKAQGVAIRFGKFSAKENKQIEKNVQDFLSLTGIESADKLLYTDRYPEEKTLITNLKRKHAFRLHIGKGIARPWKLVYYRAKKIFDVNNYKGRYNEEDTKKLKAYHSLHGNDWKKIGAMVARSSLSVALKFSQIGGTRNQGAWSKAETQRLIKAVEDVILKKMSPQELRELDSKLQEDPEGRLSIVREKLYKGISWVEVEARVETRNWMQCKSKWTEILTKRMTHGGFVYRGVNALQAKITLIERLYELNVNDANEIDWEDLASAIGDVPPPFVQAKFYKLKAACVPFWQKKTFPEIIDYLYKNSLPLLKEKLDKKMKKKDGQIQTPAAPKQDFLFKDIFHCDDDSDEGSPEEPSASDVQ” here?
**A.** not soluble

**Q.** Which “soluble on expression in E. coli” value does the source give for “MGSDKIHHHHHHMKGNAPVLAAVDISKGFRVYRAPHQRMLQAIWGERKKFYSEFWALRNVSFQVFPGEVVGVIGCNGSGKSTLLQILAGTLRPTSGQVVRPERVAALLELGAGFNMEYTGRENIIFNAMLLGLGEQEISERLDEIIQFADIGEFIDRPVRTYSSGMFVRLAFSIAAYVDADVLIVDEALAVGDAAFQFKCLNRLEELLLKGITILLVSHDIQLIKSYCSRAIYLSKGRVIFDGDCETATELYLRDSIETQRAEVRSGSLIASGEHGNSVIAYGNGQGRFLSIRMGVLDEARDYFDSGERVWVEVLVQFDLPVPEHPKITLTIRDQRGYNLYGINNLLLGKALNVEPDGRLRTRISFDCDLQAGEYALTFRLENSLSESVCELMDKKVNAAIFRVFNSPKCFDAVVNLHGAFEPVPFCCETRATQ” here?
**A.** not soluble

**Q.** With “MGSDKIHHHHHHMKHIAVIGAGLGGLSAAISLASKGFKVTVIERNEHIGGKMMPITSEGHRFDFGPNTITMPEIFQSVILESGADPDDYFTFEKLTRHTVNHFPDGRSLTFASGREAMRTEVDRFTKGQLAKNDITGYQDEVRELYNIAKQQFFINIDSYFNFSLLRDMTKVHPFKTLHGLHKKYFKDPQLIQALDRYATYIGSSPFQAPATFGLIAHLELNDGVYFTRGGNTAIAEGFARRARELGVTFRLGDEVTQIEVTNQLATEIELNHVDYLSVDFIVLNGDLLTQYPRLISETVRPDFKNPTPAQMEPSISAYVRCIGLGRRIAGLAHHNVFFSSDYEAEFEALFNQHRYAEEPTIYISNSSVTAPEMGEAGDNLFVLVNAPATHKGSAVDFDTYDKIIDQRLQQFGIDITSDVLFEQRITPQDIEQKFSAYHGSLYGLSSNGTRGAFMRPSNRSKNVHNLFFAGGSTHPGGGSPMVTLSGKLASERIVSAVAATL” as the sequence, how does the “soluble on expression in E. coli” value read?
**A.** not soluble

**Q.** For “MGSDKIHHHHHHMKIAFDVDVIKHLPITQMVRQVSEWGYKYIEQSPHPRINPFYKHPKAGRDTMQEYKRALQNYGVEISSFIVVYRWSGPDEERRRAAVTNWKRMIEIAVDMGVQVINTELSGTPDEPEICEEMWYRSMEELLPIVEREGIRIEIQSHPWDFCELNDETVDMVQSLRSDNVTYLYSAPHGFFYDKGQGDVARMLNYAGADLSHVLLADTHNHTLPCRYIMNPPGVNATIHQHIGLGEGEVDFDALFQALREMDFANRTFKVGGEAIITTSLFGYPEKMSVQAVETRERIERELLGR”, which “soluble on expression in E. coli” value is on record?
**A.** not soluble

**Q.** Which “soluble on expression in E. coli” value does the source give for “MGSDKIHHHHHHMKIALIIENSQAAKNAVVHEALTTVAEPLGHKVFNYGMYTAEDKASLTYVMNGLLAGILLNSGAADFVVTGCGTGMGSMLAANAMPGVFCGLVIDPTDAFLFGQINDGNAISMPYSKGFGWAAELNLQDVYRKLFDGERGLGYPRERAEIMRKNRGILRELKDASCRDMLTVLKTVDQDLLRAAIAGEKFAELFYPNCKDDAIANYLRSLDA” here?
**A.** not soluble

**Q.** For “MGSDKIHHHHHHMKIAQIAPLAERVPPKLYGGTERIVHCLTEELVRLGHDVTLFASGDSLTSAELVPCCDVALRLNPRVQDFLPHHIAMLEEVRRRAPQFDVLHFHIEFLHFPLIRDFADRTVTTLHTRLDLPDLQPFYLAFPDIPLVSISQHQRVPMPPVNWRGTVLHGLDPTVLPLREGRSDEYLAFLGRIAPEKGPDRAIEIAARSGMPLKIAAKIDAQDRAYWEAVVEPLIASHSNVEYIGEIDEGQKADFLGNAAALLFPINWPEPFGLVMIEAMACGTPVLAFRYGSAPEVIDDGVSGILVDTVEQAVESLGRVLELDRRKVRESFETRFTTERMTRDYLDIYQNLPGVLRQTASTPQGEAKKVGLEAA”, which “soluble on expression in E. coli” value is on record?
**A.** not soluble

**Q.** Which “soluble on expression in E. coli” value does the source give for “MGSDKIHHHHHHMKIDEFNKALDRGEISPLYYFHGDEPHLMERAVKRLMDSAVPPDFRDFNLDVFYGNECKGDEVASVAQTLPMFADRRMVLVKRAGDLSAAALEILASCVADPPPTTCLVFMGEKVDQRKKFFQEMKKKGELVECKRPYENQLGAFIREEAKGLGKRVEPAAAEMLVYLVGNNLGELSTQLEKVALYVGQRETISVEDVRGIVSDTKVESVFDLTNALGERNVVKALRSLATILRDGEAPLMLLAMIARHFRQLWRVRDLMAQKVPQQDISRLAGINPYFIKGVMAQARNFSASELKKVFEGLYATDLALKGGGAKRPTLTLEKLVMDVCGMGSR” here?
**A.** not soluble

**Q.** Which “soluble on expression in E. coli” value does the source give for “MGSDKIHHHHHHMKIDLNADLGEGCASDAELLTLVSSANIACGFHAGDAQIMQACVREAIKNGVAIGAHPSFPDRENFGRSAMQLPPETVYAQTLYQIGALATIARAQGGVMRHVKPHGMLYNQAAKEAQLADAIARAVYACDPALILVGLAGSELIRAGKQYGLTTREEVFADRGYQADGSLVPRSQSGALIENEEQALAQTLEMVQHGRVKSITGEWATVAAQTVCLHGDGEHALAFARRLRSAFAEKGIVVAA” here?
**A.** not soluble

**Q.** With “MGSDKIHHHHHHMKIELENCQKSLTLKDFEEIESKLGYALPERLKEFYLQYNGGSTKQTASINKYQEVEIEDFFPFKYNKDFKNDPRYTAEGETLELRKAGAISDSILIFAMESTDEGRITIDLVNGKIYLYPIVGMQDVIFNFEEPRLVANSIDDFFDNLVVLDGHKAIPAIEEIEEGQTETAGVMPELSDCSASLTKEDIKNFEVELNVKIPAGMKNFYLKFNGGMPSPYCYQPQDEDLDRVEINAFFPIKERTNAFETIEVIAKGIWSRNLMPCNLLPFAMDSGGNYYALNLKNKKIYYYLTDEWDENASREYNFETNTRYIAQSFNYFINHFIEEEE” as the sequence, how does the “soluble on expression in E. coli” value read?
**A.** not soluble

**Q.** For “MGSDKIHHHHHHMKIERLDKYIWKIPKEGDMKVDAIIFTDAESVNDPQFREAMKQLMNVATLPGIVKYALAMPDIHWGYGFPIGGVAAFDVKEGIISPGGVGFDINCGVRLMKTDLTYEDVKDRMRSLVEAIYEFVPAGVGSTGDIVLGKKGLRKVLVEGAEWAVKSGYGLEEDLERIEDGGKIHPADPSYVSEEAFERGSDELGTLGAGNHFVEVQMVQEIYDEELAEFFGLEIGTITVMIHSGSRGFGHQVATDYIRLMRDNLKEHNKNLPDKQLINAPFEHPLGQAYYSAMNCAANYAFANREILGHLVRKAFWKVFGRDTRVDLIYDVAHNIAKVEEYEVDGKRRKLVVHRKGATRSLGPGSEKVPSIYREVGQPVIIPGDMGTASYLLVGTKKAEEKTFGSTAHGAGRVLGRSAALKKLDYREVLDELAEKNIVVMSKSKKTLVEEAPEVYKDVDRVVQIVHEIGISRKVARMIPLGVVKG”, which “soluble on expression in E. coli” value is on record?
**A.** not soluble

**Q.** Which “soluble on expression in E. coli” value does the source give for “MGSDKIHHHHHHMKIGIDGRAAKWYRGTGIGTYTYQLISHINKLDEANDYTIFLPDSSNLNFKLKNNFSLKSINCTAKNNFWDQVNIPNIIKKDDTELYHVPQNGIGLPYNKNCRFTITLHDIIPYKMPETVGKKYLKIFEEEIPKIIPLCDGIITVSDFSKKDISEFFNYPESKIYVTYLSAEDIYRPIEKCISKDIIKNLYGIDKNYILYVGGFSPRKNISGIIHAFSKLKKTTKTNLKLIIAGKKGLSYPNYVDIAKKLNVSSDVIFPGFIPLEYMPFLYNAAEFLIYPSFYEGFGLPPLEAMACKVPVITSNITSLYEIFNGCALIVNPYDVEKIKDAMEIMYFDSSVRKIYSEKGFEFSKKLTWNSTAISTIKAYEKISKN” here?
**A.** not soluble

**Q.** With “MGSDKIHHHHHHMKIGIVTFHRALNYGAVLQACAMRRIFSDHGEVEMVDYWPDYHSSHYSLLDTRFLNKNQSLSSRVRLLKSAIKRIILLPVRLKRNKKFLSFIDSNIVKVSNAPIKLANKIPDYFDVVVYGSDQIWRVYDFDNYPRPDMVYMGAGVLDGTRKIAFAASMGDVNVDTLCDDSVIKALKNFEHINVREQALSESLLKHSGLSSCVVLDPTFLVSSDVWKRMAETIPRNRKDNKYALFYSLIPSEESIRIAKNIAEEKGVELVEINGFETIGGLFNKSVAQSAGPLDFLELIMNAEFIVSTSFHGVVFSIIFEKQFCACGMKGHSERVRSLLSKLSIEDRLIDTVEQLESLGEIDYKEVTKLLAREIEHSKELLEYSLFE” as the sequence, how does the “soluble on expression in E. coli” value read?
**A.** not soluble
